Laboratory results from PMC9881875 (bioRxiv, 2023).

How the values were obtained:
Test in all cases: fluorescence polarisation
DLG1 PDZ1 = DLG1 PDZ1 (UniProt Q12959 220-317)
SNX27 PDZ = SNX27 PDZ (UniProt Q96L92 41-135)
MAGI1 PDZ2 = MAGI1 PDZ2 (UniProt Q96QZ7 471-554)
NHERF2 PDZ2 = NHERF2 PDZ2 (UniProt Q15599 142-280)
NHERF2 PDZ2, sequence (Q15599 142-280): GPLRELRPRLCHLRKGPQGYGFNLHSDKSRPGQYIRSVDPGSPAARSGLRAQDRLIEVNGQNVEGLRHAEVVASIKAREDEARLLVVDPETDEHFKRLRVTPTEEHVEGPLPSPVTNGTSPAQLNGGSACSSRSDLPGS

DLG1 PDZ1, sequence (Q12959 220-317): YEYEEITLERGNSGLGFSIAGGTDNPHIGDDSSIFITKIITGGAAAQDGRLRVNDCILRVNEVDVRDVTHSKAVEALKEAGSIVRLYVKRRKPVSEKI
MAGI1 PDZ2, sequence (Q96QZ7 471-554): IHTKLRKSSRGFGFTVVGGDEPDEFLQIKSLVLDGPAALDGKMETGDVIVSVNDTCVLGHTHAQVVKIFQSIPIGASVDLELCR

SSRTVQDTRL [_(SSRT)CFTR peptide]
Ki (DLG1 PDZ1): > 1000 µM | Ki (SNX27 PDZ): 0.46 ± 0.11 µM | IC50 (MAGI1 PDZ2): > 1000 µM | Ki (NHERF2 PDZ2): 1.7 ± 0.4 µM
